{"source": "paper PMC4894760", "about": "(Journal of controlled release : official journal of the …, 2016)", "binders": {"B1": {"name": "recombinant human CXCR4 (receptor, UniProt P61073 1-352, looked up)", "chain": "MEGISIYTSDNYTEEMGSGDYDSMKEPCFREENANFNKIFLPTIYSIIFLTGIVGNGLVILVMGYQKKLRSMTDKYRLHLSVADLLFVITLPFWAVDAVANWYFGNFLCKAVHVIYTVNLYSSVLILAFISLDRYLAIVHATNSQRPRKLLAEKVVYVGVWIPALLLTIPDFIFANVSEADDRYICDRFYPNDLWVVVFQFQHIMVGLILPGIVILSCYCIIISKLSHSKGHQKRKALKTTVILILAFFACWLPYYIGISIDSFILLEIIKQGCEFENTVHKWISITEALAFFHCCLNPILYAFLGAKFKTSAQHALTSVSRGSSLKILSKGKRGGHSSVSTESESSSFHSS"}}, "biological_target": "recombinant human SDF1 (free SDF1) (human, UniProt P48061-2 22-89)", "sequence (P48061 22-89)": "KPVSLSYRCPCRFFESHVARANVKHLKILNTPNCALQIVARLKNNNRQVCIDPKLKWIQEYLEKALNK", "test": "SPR"}
{"binder": "B1", "values": [{"measurement": "Kd", "value": 0.3, "unit": "nM"}]}
